Values of other authors as cited in PMC6194691.

Target: transferrin receptor (Rattus norvegicus) (UniProt Q99376)
Chain of UniProt Q99376 (Q99376 whole entry): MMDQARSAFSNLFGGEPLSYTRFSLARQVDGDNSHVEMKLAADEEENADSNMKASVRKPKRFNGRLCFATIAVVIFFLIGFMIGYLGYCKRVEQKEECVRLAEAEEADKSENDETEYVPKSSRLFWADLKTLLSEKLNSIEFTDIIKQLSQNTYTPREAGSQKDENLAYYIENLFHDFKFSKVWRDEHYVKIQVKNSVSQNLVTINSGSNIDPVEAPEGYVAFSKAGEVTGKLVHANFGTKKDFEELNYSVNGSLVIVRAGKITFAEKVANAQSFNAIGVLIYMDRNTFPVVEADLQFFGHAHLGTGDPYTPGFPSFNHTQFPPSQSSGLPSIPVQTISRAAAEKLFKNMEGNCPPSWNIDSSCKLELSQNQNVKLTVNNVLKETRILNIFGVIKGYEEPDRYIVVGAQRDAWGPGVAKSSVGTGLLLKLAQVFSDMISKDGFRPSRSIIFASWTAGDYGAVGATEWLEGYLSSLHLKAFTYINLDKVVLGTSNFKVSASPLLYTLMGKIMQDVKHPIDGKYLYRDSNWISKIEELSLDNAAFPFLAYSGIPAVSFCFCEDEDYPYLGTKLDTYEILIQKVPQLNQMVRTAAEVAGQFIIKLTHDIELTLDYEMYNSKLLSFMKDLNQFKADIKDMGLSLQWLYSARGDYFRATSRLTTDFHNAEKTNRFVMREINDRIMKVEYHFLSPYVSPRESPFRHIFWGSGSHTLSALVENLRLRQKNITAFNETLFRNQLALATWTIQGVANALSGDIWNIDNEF

Kd: < 30 nM
Substance: apo-transferrin (from UniProt P12346)
